B1: human DPPA3, residues 81–118 (recombinant) [human] / human UHRF1 PHD finger, residues 299–366 [human] (parent)
chain 1: SRRGVRTLLSVQREKMARLRYMLLGGVRTHERRPTNKE
chain 2: GPSCKHCKDDVNRLCRVCACHLCGGRQDPDKQLMCDECDMAFHIYCLDPPLSSVPSEDEWYCPECRND

Variants of: B1
Assay: ITC
Conditions: with human UHRF1 PHD finger

Row | Kd [nM] | Variant
1 | 1610 | chain 1 SRRGARTLLSVQREKMARLRYMLLGGVRTHERRPTNKE
